The values below are quoted from earlier work in patent US12258594B2, “Cas proteins with reduced immunogenicity and methods of screening thereof” (THE BROAD INSTITUTE, INC., priority 2018, dated 2025).

B1: SaCas9 T787A: T787A mutant of SaCas9 (protein, UniProt J7RUA5 1-1053, looked up, variant T787A)
CRISPR-associated …: MKRNYILGLDIGITSVGYGIIDYETRDVIDAGVRLFKEANVENNEGRRSKRGARRLKRRRRHRIQRVKKLLFDYNLLTDHSELSGINPYEARVKGLSQKLSEEEFSAALLHLAKRRGVHNVNEVEEDTGNELSTKEQISRNSKALEEKYVAELQLERLKKDGEVRGSINRFKTSDYVKEAKQLLKVQKAYHQLDQSFIDTYIDLLETRRTYYEGPGEGSPFGWKDIKEWYEMLMGHCTYFPEELRSVKYAYNADLYNALNDLNNLVITRDENEKLEYYEKFQIIENVFKQKKKPTLKQIAKEILVNEEDIKGYRVTSTGKPEFTNLKVYHDIKDITARKEIIENAELLDQIAKILTIYQSSEDIQEELTNLNSELTQEEIEQISNLKGYTGTHNLSLKAINLILDELWHTNDNQIAIFNRLKLVPKKVDLSQQKEIPTTLVDDFILSPVVKRSFIQSIKVINAIIKKYGLPNDIIIELAREKNSKDAQKMINEMQKRNRQTNERIEEIIRTTGKENAKYLIEKIKLHDMQEGKCLYSLEAIPLEDLLNNPFNYEVDHIIPRSVSFDNSFNNKVLVKQEENSKKGNRTPFQYLSSSDSKISYETFKKHILNLAKGKGRISKTKKEYLLEERDINRFSVQKDFINRNLVDTRYATRGLMNLLRSYFRVNNLDVKVKSINGGFTSFLRRKWKFKKERNKGYKHHAEDALIIANADFIFKEWKKLDKAKKVMENQMFEEKQAESMPEIETEQEYKEIFITPHQIKHIKDFKDYKYSHRVDKKPNRELINDALYSTRKDDKGNTLIVNNLNGLYDKDNDKLKKLINKSPEKLLMYHHDPQTYQKLKLIMEQYGDEKNPLYKYYEETGNYLTKYSKKDNGPVIKKIKYYGNKLNAHLDITDDYPNSRNKVVKLSLKPYRFDVYLDNGVYKFVTVKNLDVIKKENYYEVNSKCYEEAKKLKKISNQAEFIASFYNNDLIKINGELYRVIGVNNDLLNRIEVNMIDITYREYLENMNDKRPPRIIKTIASKTQSIKKYSTDILGNLYEVKSKKHPQIIKKG
B2: D704A: D704A mutant of SaCas9 (protein, UniProt J7RUA5 1-1053, looked up, variant D704A)
CRISPR-associated …: MKRNYILGLDIGITSVGYGIIDYETRDVIDAGVRLFKEANVENNEGRRSKRGARRLKRRRRHRIQRVKKLLFDYNLLTDHSELSGINPYEARVKGLSQKLSEEEFSAALLHLAKRRGVHNVNEVEEDTGNELSTKEQISRNSKALEEKYVAELQLERLKKDGEVRGSINRFKTSDYVKEAKQLLKVQKAYHQLDQSFIDTYIDLLETRRTYYEGPGEGSPFGWKDIKEWYEMLMGHCTYFPEELRSVKYAYNADLYNALNDLNNLVITRDENEKLEYYEKFQIIENVFKQKKKPTLKQIAKEILVNEEDIKGYRVTSTGKPEFTNLKVYHDIKDITARKEIIENAELLDQIAKILTIYQSSEDIQEELTNLNSELTQEEIEQISNLKGYTGTHNLSLKAINLILDELWHTNDNQIAIFNRLKLVPKKVDLSQQKEIPTTLVDDFILSPVVKRSFIQSIKVINAIIKKYGLPNDIIIELAREKNSKDAQKMINEMQKRNRQTNERIEEIIRTTGKENAKYLIEKIKLHDMQEGKCLYSLEAIPLEDLLNNPFNYEVDHIIPRSVSFDNSFNNKVLVKQEENSKKGNRTPFQYLSSSDSKISYETFKKHILNLAKGKGRISKTKKEYLLEERDINRFSVQKDFINRNLVDTRYATRGLMNLLRSYFRVNNLDVKVKSINGGFTSFLRRKWKFKKERNKGYKHHAEAALIIANADFIFKEWKKLDKAKKVMENQMFEEKQAESMPEIETEQEYKEIFITPHQIKHIKDFKDYKYSHRVDKKPNRELINDTLYSTRKDDKGNTLIVNNLNGLYDKDNDKLKKLINKSPEKLLMYHHDPQTYQKLKLIMEQYGDEKNPLYKYYEETGNYLTKYSKKDNGPVIKKIKYYGNKLNAHLDITDDYPNSRNKVVKLSLKPYRFDVYLDNGVYKFVTVKNLDVIKKENYYEVNSKCYEEAKKLKKISNQAEFIASFYNNDLIKINGELYRVIGVNNDLLNRIEVNMIDITYREYLENMNDKRPPRIIKTIASKTQSIKKYSTDILGNLYEVKSKKHPQIIKKG
B3: H557A: H557A mutant of SaCas9 (protein, UniProt J7RUA5 1-1053, looked up, variant H557A)
CRISPR-associated …: MKRNYILGLDIGITSVGYGIIDYETRDVIDAGVRLFKEANVENNEGRRSKRGARRLKRRRRHRIQRVKKLLFDYNLLTDHSELSGINPYEARVKGLSQKLSEEEFSAALLHLAKRRGVHNVNEVEEDTGNELSTKEQISRNSKALEEKYVAELQLERLKKDGEVRGSINRFKTSDYVKEAKQLLKVQKAYHQLDQSFIDTYIDLLETRRTYYEGPGEGSPFGWKDIKEWYEMLMGHCTYFPEELRSVKYAYNADLYNALNDLNNLVITRDENEKLEYYEKFQIIENVFKQKKKPTLKQIAKEILVNEEDIKGYRVTSTGKPEFTNLKVYHDIKDITARKEIIENAELLDQIAKILTIYQSSEDIQEELTNLNSELTQEEIEQISNLKGYTGTHNLSLKAINLILDELWHTNDNQIAIFNRLKLVPKKVDLSQQKEIPTTLVDDFILSPVVKRSFIQSIKVINAIIKKYGLPNDIIIELAREKNSKDAQKMINEMQKRNRQTNERIEEIIRTTGKENAKYLIEKIKLHDMQEGKCLYSLEAIPLEDLLNNPFNYEVDAIIPRSVSFDNSFNNKVLVKQEENSKKGNRTPFQYLSSSDSKISYETFKKHILNLAKGKGRISKTKKEYLLEERDINRFSVQKDFINRNLVDTRYATRGLMNLLRSYFRVNNLDVKVKSINGGFTSFLRRKWKFKKERNKGYKHHAEDALIIANADFIFKEWKKLDKAKKVMENQMFEEKQAESMPEIETEQEYKEIFITPHQIKHIKDFKDYKYSHRVDKKPNRELINDTLYSTRKDDKGNTLIVNNLNGLYDKDNDKLKKLINKSPEKLLMYHHDPQTYQKLKLIMEQYGDEKNPLYKYYEETGNYLTKYSKKDNGPVIKKIKYYGNKLNAHLDITDDYPNSRNKVVKLSLKPYRFDVYLDNGVYKFVTVKNLDVIKKENYYEVNSKCYEEAKKLKKISNQAEFIASFYNNDLIKINGELYRVIGVNNDLLNRIEVNMIDITYREYLENMNDKRPPRIIKTIASKTQSIKKYSTDILGNLYEVKSKKHPQIIKKG
B4: E477A: E477A mutant of SaCas9 (protein, UniProt J7RUA5 1-1053, looked up, variant E477A)
CRISPR-associated …: MKRNYILGLDIGITSVGYGIIDYETRDVIDAGVRLFKEANVENNEGRRSKRGARRLKRRRRHRIQRVKKLLFDYNLLTDHSELSGINPYEARVKGLSQKLSEEEFSAALLHLAKRRGVHNVNEVEEDTGNELSTKEQISRNSKALEEKYVAELQLERLKKDGEVRGSINRFKTSDYVKEAKQLLKVQKAYHQLDQSFIDTYIDLLETRRTYYEGPGEGSPFGWKDIKEWYEMLMGHCTYFPEELRSVKYAYNADLYNALNDLNNLVITRDENEKLEYYEKFQIIENVFKQKKKPTLKQIAKEILVNEEDIKGYRVTSTGKPEFTNLKVYHDIKDITARKEIIENAELLDQIAKILTIYQSSEDIQEELTNLNSELTQEEIEQISNLKGYTGTHNLSLKAINLILDELWHTNDNQIAIFNRLKLVPKKVDLSQQKEIPTTLVDDFILSPVVKRSFIQSIKVINAIIKKYGLPNDIIIALAREKNSKDAQKMINEMQKRNRQTNERIEEIIRTTGKENAKYLIEKIKLHDMQEGKCLYSLEAIPLEDLLNNPFNYEVDHIIPRSVSFDNSFNNKVLVKQEENSKKGNRTPFQYLSSSDSKISYETFKKHILNLAKGKGRISKTKKEYLLEERDINRFSVQKDFINRNLVDTRYATRGLMNLLRSYFRVNNLDVKVKSINGGFTSFLRRKWKFKKERNKGYKHHAEDALIIANADFIFKEWKKLDKAKKVMENQMFEEKQAESMPEIETEQEYKEIFITPHQIKHIKDFKDYKYSHRVDKKPNRELINDTLYSTRKDDKGNTLIVNNLNGLYDKDNDKLKKLINKSPEKLLMYHHDPQTYQKLKLIMEQYGDEKNPLYKYYEETGNYLTKYSKKDNGPVIKKIKYYGNKLNAHLDITDDYPNSRNKVVKLSLKPYRFDVYLDNGVYKFVTVKNLDVIKKENYYEVNSKCYEEAKKLKKISNQAEFIASFYNNDLIKINGELYRVIGVNNDLLNRIEVNMIDITYREYLENMNDKRPPRIIKTIASKTQSIKKYSTDILGNLYEVKSKKHPQIIKKG
B5: D10A: D10A mutant of SaCas9 (protein, UniProt J7RUA5 1-1053, looked up, variant D10A)
CRISPR-associated …: MKRNYILGLAIGITSVGYGIIDYETRDVIDAGVRLFKEANVENNEGRRSKRGARRLKRRRRHRIQRVKKLLFDYNLLTDHSELSGINPYEARVKGLSQKLSEEEFSAALLHLAKRRGVHNVNEVEEDTGNELSTKEQISRNSKALEEKYVAELQLERLKKDGEVRGSINRFKTSDYVKEAKQLLKVQKAYHQLDQSFIDTYIDLLETRRTYYEGPGEGSPFGWKDIKEWYEMLMGHCTYFPEELRSVKYAYNADLYNALNDLNNLVITRDENEKLEYYEKFQIIENVFKQKKKPTLKQIAKEILVNEEDIKGYRVTSTGKPEFTNLKVYHDIKDITARKEIIENAELLDQIAKILTIYQSSEDIQEELTNLNSELTQEEIEQISNLKGYTGTHNLSLKAINLILDELWHTNDNQIAIFNRLKLVPKKVDLSQQKEIPTTLVDDFILSPVVKRSFIQSIKVINAIIKKYGLPNDIIIELAREKNSKDAQKMINEMQKRNRQTNERIEEIIRTTGKENAKYLIEKIKLHDMQEGKCLYSLEAIPLEDLLNNPFNYEVDHIIPRSVSFDNSFNNKVLVKQEENSKKGNRTPFQYLSSSDSKISYETFKKHILNLAKGKGRISKTKKEYLLEERDINRFSVQKDFINRNLVDTRYATRGLMNLLRSYFRVNNLDVKVKSINGGFTSFLRRKWKFKKERNKGYKHHAEDALIIANADFIFKEWKKLDKAKKVMENQMFEEKQAESMPEIETEQEYKEIFITPHQIKHIKDFKDYKYSHRVDKKPNRELINDTLYSTRKDDKGNTLIVNNLNGLYDKDNDKLKKLINKSPEKLLMYHHDPQTYQKLKLIMEQYGDEKNPLYKYYEETGNYLTKYSKKDNGPVIKKIKYYGNKLNAHLDITDDYPNSRNKVVKLSLKPYRFDVYLDNGVYKFVTVKNLDVIKKENYYEVNSKCYEEAKKLKKISNQAEFIASFYNNDLIKINGELYRVIGVNNDLLNRIEVNMIDITYREYLENMNDKRPPRIIKTIASKTQSIKKYSTDILGNLYEVKSKKHPQIIKKG

This series relates to target DNA. The following applies: SaCas9 mutants.
Regarding B1, the DNA cleavage activity result is “reduced DNA cleavage activity”.
As to B2, the DNA cleavage activity entry is “almost no DNA cleavage activity”.
Take B3: the DNA cleavage activity entry is “almost completely lacked DNA cleavage activity”.
Turning to B4, the DNA cleavage activity result is given as “almost no DNA cleavage activity”.
On to B5, for which the DNA cleavage activity result is given as “almost no DNA cleavage activity”.
